Measured values from PMC11634027.

Assays:
[1] = biological target: Ds-TM-ICD-ΔD-III:V5 (Drosophila); experiment: co-IP; S2 cells co-transfected; lysed in RIPA buffer; V5-tagged Ds construct precipitated with V5-Trap magnetic agarose beads, 1 h; blots with anti-V5 and anti-FLAG (Figs 4E, 5G, 6D,F, 8K)
[2] = biological target: Ds-TM-ICD-ΔD-II:V5 (Drosophila); experiment: as above
[3] = biological target: Ds-TM-ICD-ΔD-III:V5 (Drosophila); experiment: co-IP; S2 cells co-transfected; lysed in RIPA buffer; results in supplementary figures (S6-S9) or without a figure; which beads (V5-Trap or Fab-Trap) is not told in what was shown
[4] = biological target: Ds-TM-ICD-ΔD-II:V5 (Drosophila); experiment: as above

“MyoID:FLAG (from UniProt Q23978 1-1011) (natural protein)” was tested, and the co-precipitation relative to control (Ds-ICD:V5) [1] was 40% and the co-precipitation relative to control (Ds-ICD:V5) [2] was 57%.
In the case of “Sple-N:FLAG (from UniProt A1Z6W3 1-349) (domain or fragment)”, the co-precipitation relative to Ds-ICD full length [3] is reported as 35% and the co-precipitation relative to Ds-ICD full length [4] is reported as 30%.
Substance “FLAG:Lft (Lowfat) (from UniProt Q9VKY1 1-268) (natural protein)” has a co-precipitation relative to Ds-ICD full length [2] of 15%.
